Patent US20220298237A1 (KEIO UNIVERSITY, published 2022)
Each block holds one binder with its values, some of them ahead of it.

What was measured:
[1] = target: T1, mouse AQP3 in lysate of HEK293T cells overexpressing mouse AQP3 and a myc-biotinylated tag (mouse, UniProt Q8R2N1 1-292); test: ELISA on lysate of HEK293T cells overexpressing mouse AQP3 (FIG. 3)
T1 construct: Cell lysate used in ELISA; also called AQP3 containing cell lysate; not shown: myc-biotinylated tag
T1 sequence (looked up): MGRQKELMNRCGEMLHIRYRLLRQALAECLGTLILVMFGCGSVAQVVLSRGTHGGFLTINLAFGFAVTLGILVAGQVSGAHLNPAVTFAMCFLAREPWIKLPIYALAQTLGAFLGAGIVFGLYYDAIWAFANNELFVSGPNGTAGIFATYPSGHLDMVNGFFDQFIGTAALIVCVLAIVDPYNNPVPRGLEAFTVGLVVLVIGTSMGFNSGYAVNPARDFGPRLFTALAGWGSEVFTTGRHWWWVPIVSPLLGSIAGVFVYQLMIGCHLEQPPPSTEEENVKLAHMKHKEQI
Description: Cell lysate from HEK293T cells overexpressing mouse AQP3 and a myc-biotinylated tag was used in an ELISA assay to measure the binding of antibodies A, B, C, D, E, F, G, H, J, and K to AQP3. Cell lysate from HEK293T cells overexpressing the myc-biotinylated tag but not AQP3 was used as control. […] C. Antibody binding to AQP3 expressing cells

[2] = target: T2, mouse aquaporin 3 (AQP3) on cells (mouse, UniProt Q8R2N1 1-292); test: fluorescence binding assay on PAM212 cells, 10 µg/mL (FIG. 5B)
T2 construct: whole, on cells; Water channel membrane protein; also called mouse AQP3; AQP3 on PAM212 cells
T2 sequence (looked up): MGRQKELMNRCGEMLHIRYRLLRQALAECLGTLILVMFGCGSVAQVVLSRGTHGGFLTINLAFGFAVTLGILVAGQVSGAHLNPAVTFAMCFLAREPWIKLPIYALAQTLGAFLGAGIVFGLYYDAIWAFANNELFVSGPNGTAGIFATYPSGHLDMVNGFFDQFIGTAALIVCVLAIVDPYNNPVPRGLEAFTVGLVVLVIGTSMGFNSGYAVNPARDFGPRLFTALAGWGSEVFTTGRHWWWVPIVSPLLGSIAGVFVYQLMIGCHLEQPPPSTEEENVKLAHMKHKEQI
Protocol: (§1) PAM212 and macrophage cells were reacted with each anti AQP3 antibody (0.1, 1, or 10 μg/mL) at 4° C. for 1 hour. After washing the cells, a fluorescent-labeled secondary antibody was added and the reaction was allowed to occur additionally for 1 hour (4° C.). By measuring the fluorescence intensity, the binding property of each anti AQP3 antibody to cells was obtained.
The assay was also performed using PAM212 cells and antibodies A, B, C, D, E, F, G, H, and J at a concentration of 10 μg/mL. Binding of antibodies C, D, E, G, and J to PAM212 cells was statistically significant.

[3] = target: T3, human aquaporin 3 (AQP3) on cells (human, UniProt Q92482 1-292); test: flow cytometry on HaCaT cells, 10 µg/mL (FIG. 6A)
T3 construct: whole, on cells; Water channel membrane protein; also called human AQP3; AQP3 on HaCaT cells
T3 sequence (looked up): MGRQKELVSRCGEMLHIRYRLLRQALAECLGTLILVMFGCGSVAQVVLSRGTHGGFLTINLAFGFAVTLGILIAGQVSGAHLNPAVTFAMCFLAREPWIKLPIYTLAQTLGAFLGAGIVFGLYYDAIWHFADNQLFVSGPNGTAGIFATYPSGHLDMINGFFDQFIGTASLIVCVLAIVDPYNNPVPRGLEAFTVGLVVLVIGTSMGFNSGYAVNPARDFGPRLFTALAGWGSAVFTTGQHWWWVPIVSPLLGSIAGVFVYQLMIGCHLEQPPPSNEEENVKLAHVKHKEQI
Protocol: HaCaT cells were treated with Cell Dissociation Buffer for 30 minutes at 37° C., and then dislodged and collected. Then, the cells were reacted with 10 μg/mL anti AQP3 antibody at 4° C. for 1 hour. After washing the cells, a fluorescent-labeled secondary antibody was added and the reaction was allowed to occur additionally for 1 hour (4° C.). Then, by using a flow cytometer, fluorescence intensity was measured (FIG. 6A to FIG. 6C). FIG. 6A represents the result of a case in which antibody G was used, FIG. 6B represents the result of a case in which antibody H was used, and FIG. 6C represents the result of a case in which antibody J was used. […] The histogram expressed with bold line represents a case in which the anti AQP3 antibody was used while the histogram expressed with thin dotted line represents a case as a control in which the anti AQP3 antibody was not used (addition of non-specific IgG). […] Ratio (%) of the cells included in this range (=cells showing positive staining by anti AQP3 antibody) is also shown in the drawing.

[4] = target: T4, oligopeptide ATYPSGHLDM (SEQ ID NO: 1) (human and mouse); test: ELISA on the immunogen peptide (FIG. 2)
T4 construct: Synthetic peptide; positions 148 to 157 of the human AQP3 polypeptide, identical in mouse; also called peptide used for immunization; oligopeptide 5
T4 peptide: ATYPSGHLDM

[5] = target: T2, mouse aquaporin 3 (AQP3) on cells; test: fluorescence binding assay on mouse macrophage cells, 0.1, 1 and 10 µg/mL (FIG. 4)
Protocol: as §1
The testing was also carried out using solvent (Veh) or a non-specific IgG (IgG) controls. In FIG. 4, the vertical axis represents fluorescence intensity, and the mean fluorescence intensity of each sample is represented by bar height together with standard error.

[6] = target: T5, oligopeptide SGHLDM (SEQ ID NO: 99); test: ELISA on coated peptide
T5 construct: Synthetic peptide, part of Loop C of AQP3
T5 peptide: SGHLDM
Protocol: (§2) To determine the important amino acid residues of an epitope in Loop C involved in binding to specific AQP3 antibody clones, peptides of varying lengths were produced. The sequences of these peptides are shown in column 2 of Table 4.
(§3) The various peptides and AQP3 antibody clones were subjected to ELISA binding analyses. […] The microtiter wells (Costar 2690) were coated with 50 μL of each peptide at 4° C. overnight. The wells were washed 3 times with PBS and blocked with 100 μL of 1% BSA/PBS at 37° C. for 1 hour. Each antibody was adjusted to 1 μg/mL in 1% SBA/PBS as above then serially diluted 1:5 in 1% BSA/PBS. The blocker was discarded and the wells were incubated with 50 μL of antibodies at 37° C. for 1.5 hours. The wells were washed 3 times with PBS and mouse antibodies were detected with 50 μL of goat anti-mouse IgG (H+L) HRP conjugate (ThermoFisher 31438) (1:5,000 in 1% BSA/PBS) and rabbit antibodies were detected with 50 μL of goat anti-rabbit IgG (H+L) HRP conjugate (ThermoFisher 31462) (1:5,000 in 1% BSA/PBS) at 37° C. for 1 hour. The wells were washed 3 times with PBS and developed with 50 μL of HRP substrate at RT for 5 min then stopped with 50 μL of 2N sulfuric acid and binding was measured with a plate reader.

[7] = target: T6, oligopeptide ATYPSGH (SEQ ID NO: 103); test: ELISA on coated peptide
T6 construct: Synthetic peptide, part of Loop C of AQP3
T6 peptide: ATYPSGH
Protocol: as §2, §3

[8] = target: T7, oligopeptide AGIFATYPSGHLDM (SEQ ID NO: 106); test: ELISA on coated peptide
T7 construct: Synthetic peptide, part of Loop C of AQP3
T7 peptide: AGIFATYPSGHLDM
Protocol: as §2, §3

[9] = target: T4, oligopeptide ATYPSGHLDM (SEQ ID NO: 1); test: ELISA on coated peptide
Protocol: as §2, §3

[10] = target: T8, oligopeptide TYPSGHLDM (SEQ ID NO: 96); test: ELISA on coated peptide
T8 construct: Synthetic peptide, part of Loop C of AQP3
T8 peptide: TYPSGHLDM
Protocol: as §2, §3

[11] = target: T9, oligopeptide PSGHLDM (SEQ ID NO: 98); test: ELISA on coated peptide
T9 construct: Synthetic peptide, part of Loop C of AQP3
T9 peptide: PSGHLDM
Protocol: as §2, §3

[12] = target: T10, oligopeptide YPSGHLDM (SEQ ID NO: 97); test: ELISA on coated peptide
T10 construct: Synthetic peptide, part of Loop C of AQP3; first diluted in DMSO
T10 peptide: YPSGHLDM
Protocol: as §2, §3

[13] = target: T11, oligopeptide GHLDM (SEQ ID NO: 100); test: ELISA on coated peptide
T11 construct: Synthetic peptide, part of Loop C of AQP3
T11 peptide: GHLDM
Protocol: as §2, §3

[14] = target: T12, oligopeptide IFATYPSGHLDM (SEQ ID NO: 108); test: ELISA on coated peptide
T12 construct: Synthetic peptide, part of Loop C of AQP3
T12 peptide: IFATYPSGHLDM
Protocol: as §2, §3

[15] = target: T13, oligopeptide ATYPSGHL (SEQ ID NO: 102); test: ELISA on coated peptide
T13 construct: Synthetic peptide, part of Loop C of AQP3
T13 peptide: ATYPSGHL
Protocol: as §2, §3

[16] = target: T14, oligopeptide ATYPSGHLD (SEQ ID NO: 101); test: ELISA on coated peptide
T14 construct: Synthetic peptide, part of Loop C of AQP3
T14 peptide: ATYPSGHLD
Protocol: as §2, §3

[17] = target: T15, oligopeptide FATYPSGHLDM (SEQ ID NO: 109); test: ELISA on coated peptide
T15 construct: Synthetic peptide, part of Loop C of AQP3
T15 peptide: FATYPSGHLDM
Protocol: as §2, §3

[18] = target: T16, oligopeptide ATYPSG (SEQ ID NO: 104); test: ELISA on coated peptide
T16 construct: Synthetic peptide, part of Loop C of AQP3
T16 peptide: ATYPSG
Protocol: as §2, §3

[19] = target: T17, oligopeptide TAGIFATYPSGHLDM (SEQ ID NO: 105); test: ELISA on coated peptide
T17 construct: Synthetic peptide, part of Loop C of AQP3
T17 peptide: TAGIFATYPSGHLDM
Protocol: as §2, §3

[20] = target: T18, oligopeptide GIFATYPSGHLDM (SEQ ID NO: 107); test: ELISA on coated peptide
T18 construct: Synthetic peptide, part of Loop C of AQP3
T18 peptide: GIFATYPSGHLDM
Protocol: as §2, §3

[21] = target: T19, oligopeptide SGPNGTAGIFATYPS (SEQ ID NO: 94); test: ELISA on coated peptide
T19 construct: Synthetic peptide, part of Loop C of AQP3
T19 peptide: SGPNGTAGIFATYPS
Protocol: as §2, §3

[22] = target: T3, human aquaporin 3 (AQP3) on cells; test: fluorescence binding assay on HaCaT cells, 10 µg/mL (FIG. 5C)
[23] = target: T4, oligopeptide ATYPSGHLDM (SEQ ID NO: 1); test: ELISA on peptide SEQ ID NO:1, IgG, 50% binding response (FIG. 16A)
[24] = target: T2, mouse aquaporin 3 (AQP3) on cells; test: FACS on HEK293 cells stably overexpressing mouse AQP3, 10 µg/mL
Protocol: A FACS assay was also performed using HEK293 cells stably overexpressing mouse AQP3. Cells were incubated with antibody E, H, J, or negative control IgG at a concentration of 10 μg/mL for one hour and then sorted by FACS. Separately, HEK293 cells stably overexpressing human AQP3 were incubated with antibody E at a concentration of 10 μg/mL for one hour and then sorted by FACS.

binding result [1]: binds
binding result [2]: binds
binding result [3]: binds
binding result [4]: binds
B1: Antibody G (antibody, mouse IgG2a, kappa, V domains shown)
VH: QVQLKQSGAELVRPGASVTLSCKASGYTFTDYEMHWVKQTPVHGLEWIGGIDPETGGTAYNQKFKGKAILTADKSSSTAYMELRSLTSEDSAVYYCTRWGAITSFVALRGFAYWGQGTLVTVSS
VL: DIQMTQSPSSLSVSAGEKVTMSCKSSQSLLNSGNQKNYLAWYQQKPGQPPKLLIYGASTRESGVPDRFTGSGSGTDFTLTISSVQAEDLAVYYCQNDHSYPPTFGAGTKLELKR
notes: also called anti AQP3 antibody G; Antiboy G

binding result [1]: binds
binding result [5]: binds
binding signal (plate reader) [6]: 0.041
binding signal (plate reader) [7]: 0.045
binding signal (plate reader) [8]: 0.744
binding signal (plate reader) [9]: 0.391
binding signal (plate reader) [10]: 0.26
binding signal (plate reader) [11]: 0.095
binding signal (plate reader) [12]: 0.086
binding signal (plate reader) [13]: 0.043
binding signal (plate reader) [14]: 0.594
binding signal (plate reader) [15]: 0.044
binding signal (plate reader) [16]: 0.671
binding signal (plate reader) [17]: 0.513
binding signal (plate reader) [18]: 0.044
binding signal (plate reader) [19]: 0.723
binding signal (plate reader) [20]: 0.523
binding signal (plate reader) [21]: 0.043
binding result [22]: binds
EC50 [23]: > 1 µg/mL
B2: Antibody J (antibody, mouse IgG2a, kappa, V domains shown)
VH: QVHLQQSGTELVKPGASVKLSCEASGYTFTSYWMHWVKQRPGQGLEWIGNINPSNGGTNYNEKFKSKATLTVDKSSSTAYMQLSSLTSEDSAVYYCARGGIYYGNYDYYAMDYWGQGTSVTVSS
VL: DIVMTQAAPSVPVTPGESVSISCRSSKSLLHSNGNTYLYWFLQRPGQSPQLLIYRVSNLASGVPDRFSGSGSGTAFTLRISRVEAEDVGVYYCMQHLEYPFTFGGGTKLEIKR
notes: also called anti AQP3 antibody J

binding result [1]: binds
binding result [4]: binds
binding result [24]: binds
binding result [22]: binds
B3: Antibody H (antibody, mouse IgG2a, kappa, V domains shown)
VH: EVKLVESGGDLVKPGGSLKLSCAASGFTFSSYGMSWVRQTPDKRLEWVATISRRSIYTYYPDSVQGRFTISRDNAKNTLYLQMSSLKSEDTAMYYCARLSLYDYDGARYTMDYWGQGTSVTVSS
VL: DIKMTQSPKFMSTSVGDRVSITCKASQDVGTAVAWYQQKPGQSPKLLIYWASTRHTGVPDRFTGSGSGTDFTLTISNVQSEDLADYFCQQYSSYHTFGAGTKLEIKR
notes: also called anti AQP3 antibody H
